This note sets out measurements from IntAct's records for PubMed 17586626.

B1: Multidrug resistance protein MexB (Pseudomonas aeruginosa (strain ATCC 15692 / PAO1 / 1C / PRS 101 / LMG 12228)), P52002 (parent)
chain: MSKFFIDRPIFAWVIALVIMLAGGLSILSLPVNQYPAIAPPAIAVQVSYPGASAETVQDTVVQVIEQQMNGIDNLRYISSESNSDGSMTITVTFEQGTDPDIAQVQVQNKLQLATPLLPQEVQRQGIRVTKAVKNFLMVVGVVSTDGSMTKEDLSNYIVSNIQDPLSRTKGVGDFQVFGSQYSMRIWLDPAKLNSYQLTPGDVSSAIQAQNVQISSGQLGGLPAVKGQQLNATIIGKTRLQTAEQFENILLKVNPDGSQVRLKDVADVGLGGQDYSINAQFNGSPASGIAIKLATGANALDTAKAIRQTIANLEPFMPQGMKVVYPYDTTPVVSASIHEVVKTLGEAILLVFLVMYLFLQNFRATLIPTIAVPVVLLGTFGVLAAFGFSINTLTMFGMVLAIGLLVDDAIVVVENVERVMAEEGLSPREAARKSMGQIQGALVGIAMVLSAVFLPMAFFGGSTGVIYRQFSITIVSAMALSVIVALILTPALCATMLKPIEKGDHGEHKGGFFGWFNRMFLSTTHGYERGVASILKHRAPYLLIYVVIVAGMIWMFTRIPTAFLPDEDQGVLFAQVQTPPGSSAERTQVVVDSMREYLLEKESSSVSSVFTVTGFNFAGRGQSSGMAFIMLKPWEERPGGENSVFELAKRAQMHFFSFKDAMVFAFAPPSVLELGNATGFDLFLQDQAGVGHEVLLQARNKFLMLAAQNPALQRVRPNGMSDEPQYKLEIDDEKASALGVSLADINSTVSIAWGSSYVNDFIDRGRVKRVYLQGRPDARMNPDDLSKWYVRNDKGEMVPFNAFATGKWEYGSPKLERYNGVPAMEILGEPAPGLSSGDAMAAVEEIVKQLPKGVGYSWTGLSYEERLSGSQAPALYALSLLVVFLCLAALYESWSIPFSVMLVVPLGVIGALLATSMRGLSNDVFFQVGLLTTIGLSAKNAILIVEFAKELHEQGKGIVEAAIEACRMRLRPIVMTSLAFILGVVPLAISTGAGSGSQHAIGTGVIGGMVTATVLAIFWVPLFYVAVSTLFKDEASKQQASVEKGQ
partner: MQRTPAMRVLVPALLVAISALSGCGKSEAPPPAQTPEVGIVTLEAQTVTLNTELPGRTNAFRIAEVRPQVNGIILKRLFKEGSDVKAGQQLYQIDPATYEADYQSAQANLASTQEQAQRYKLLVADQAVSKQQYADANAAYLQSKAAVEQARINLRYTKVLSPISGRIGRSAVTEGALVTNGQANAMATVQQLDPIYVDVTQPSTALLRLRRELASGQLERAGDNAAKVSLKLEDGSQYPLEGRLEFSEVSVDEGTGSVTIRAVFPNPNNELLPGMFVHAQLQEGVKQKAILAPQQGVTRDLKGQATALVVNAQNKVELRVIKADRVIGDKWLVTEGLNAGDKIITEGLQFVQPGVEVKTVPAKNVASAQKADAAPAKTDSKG
B2: Multidrug resistance protein MexA (Pseudomonas aeruginosa (strain ATCC 15692 / PAO1 / 1C / PRS 101 / LMG 12228)), P52477 (parent)
chain: B1 partner
partner: B1 chain

The variants in the first assay derive from B1. The following applies: with mexa_pseae mexA, P52477.
For the variant G220S, the “effect of a mutation on the interaction” value was “decreasing interaction strength”.

The variants in a further assay derive from B2. The following applies: with mexb_pseae mexB, P52002.
For V66M, the “effect of a mutation on the interaction” value was “increasing interaction strength”.

As to V259F, the “effect of a mutation on the interaction” value was “increasing interaction strength”.
